Data reported in article PMC8610173.

Biological target: NF-Y (NF-YA confirmed by supershift) ((K562 cells)) (UniProt P23511)
Test: EMSA

NF-Y (NF-YA confirmed by supershift) ((K562 cells)), sequence (P23511 whole entry): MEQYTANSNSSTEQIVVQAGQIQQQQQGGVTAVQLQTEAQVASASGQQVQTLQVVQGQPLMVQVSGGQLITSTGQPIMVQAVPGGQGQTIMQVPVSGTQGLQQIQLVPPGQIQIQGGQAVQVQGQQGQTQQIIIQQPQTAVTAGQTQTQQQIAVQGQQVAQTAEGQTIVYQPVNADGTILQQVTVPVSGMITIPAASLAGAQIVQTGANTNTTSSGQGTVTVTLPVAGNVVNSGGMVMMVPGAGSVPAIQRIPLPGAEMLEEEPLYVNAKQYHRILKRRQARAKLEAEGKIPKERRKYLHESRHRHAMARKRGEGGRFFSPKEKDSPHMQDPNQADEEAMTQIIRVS

**Q.** “AGCCTTGCCTTGACCAATCGCCTTGACAA (double strand) [HBG distal CCAAT box -110 A>C]” was tested. Which binding signal (fold of WT band intensity) did it give?
**A.** The binding signal (fold of WT band intensity) was 1.5.

**Q.** With “AGCCTTGCCTTGACCAATAGCCTTGACAA (double strand) [HBG distal CCAAT box WT]” as the sequence, how does the binding signal (fold of WT band intensity (reference)) read?
**A.** The binding signal (fold of WT band intensity (reference)) was 1.
